Laboratory results from a protein production outcome set (Wang et al. 2014).

Assay: label from the status in PepcDB records
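Also: failed if final PepcDB status was selected cloned or expressed and not failed if soluble or beyond.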

| Sequence | protein production |
| --- | --- |
| MGSSHHHHHHSSGRENLYFQGMKEVEKNEIKRLSDRLDAIRHQQADLSLVEAADKYAELEKEKATLEAEIARLREVHSQKLSKEAQKLMKMPFQRAITKKEQADMGKLKKSVRGLVVVHPMTALGREMGLEEMTGFSKTTF | not failed |
| TLRNYPLTCKVVYSYKASQPDELTIEEHEVLEVIEDGDMEDWVKARNKVGQVGYVPEKYLQFPTS | not failed |
| MSLKDVSLSSFDAHDLDLDKFPEVVRDRLTQFLDAQELTIADIGAPVTDAVAHLRSFVLNGGKRIRPLYAWAGFLAAQGHKNSSEKLESVLDAAASLEFIQACALIHDDIIDSSDTRRGAPTVHRAVEADHRANNFEGDPEHFGVSVSILAGDMALVWAEDMLQDSGLSAEALARTRDAWRGMRTEVIGGQLLDIYLESHANESVELADSVNRFKTAAYTIARPLHLGASIAGGSPQLIDALLHYGHDIGIAFQLRDDLLGVFGDPAITGKPAGDDIREGKRTVLLALALQRADKQSPEAATAIRAGVGKVTSPEDIAVITEHIRATGAEEEVEQRISQLTESGLAHLDDVDIPDEVRAQLRALAIRSTERREGHHHHHH | not failed |
| MKGGTIQISWHDGKPVLTVDFHPISGLLATAGADYDIKLWLINSGQAEKKVPSVSYQSSLTYHGCAVNTIRFSPSGELLASGADGGELFIWKLHPSETNQSWKVHKSLSFHRKDVLDLQWSPDDAYLISGSVDNSCIIWDVNKGSVHQILDAHCHYVQGVAWDPLAKYVASLSSDRTCRIYANKPQTKSKGVEKMNYVCQHVIMKADQQRGDETKTIKTHLFHDETLPSFFRRLSWSPDGSFLLIPAGSFKVSPTSEAVNATYVFSRKDLSRPALQLPGASKPVVVVRFCPVAFKLRGSSSEEGFFKLPYRLVFAIATLNSVYIYDTECVAPIAVLAGLHYAAITDITWSPNASYLALSSQDGYCTLVEFEDKELGEAVSISGLLLVLSLLNLPEPD | failed |
| MAKVKVLFVRNLANTVTEEILEKAFSQFGKLERVKKLKDYAFIHFDERDGAVKAMEEMNGKDLEGENIEIVFAKPPDQKRKERKAQRQAA | not failed |
| SRKRLSAPELRLSLTKGPGNDGASPTQSAPSSPDGSSDLEIDELETPSDSEQLDSGHEFEWEDELPRAEGLGTSETAERLGRGCMWDVTGEDGHHWRVFRMGPREQRVDMTVIEPYKKVLSHGGYHGDGLNAVILFASCYLPRSSIPNYTYVMEHLFRYMVGTLELLVAENYLLVHLSGGTSRAQVPPLSWIRQCYRTLDRRLRKNLRALVVVHATWYVKAFLALLRPFISSKFTRKIRFLDSLGELAQLISLDQVHIPEAVRQLDRDLHGSGGT | failed |
| SIQKDLANIAEVEVSIPAKLHNSLIGTKGRLIRSIMEECGGVHIHFPVEGSGSDTVVIRGPSSDVEKAKKQLLHLAEEKQTK | not failed |
| MDRDLLRQSLNCHGSSLLSLLRSEQQDNPHFRSLLGSAAEPARGPPPQHPLQGRKEKRVDNIEIQKFISKKADLLFALSWKSDAPATSEINEDSEDHYAIMPPLEQFMEIPSMDRRELFFRDIERGDIVIGRISSIREFGFFMVLICLGSGIMRDIAHLEITALCPLRDVPSHSNHGDPLSYYQTGDIIRAGIKDIDRYHEKLAVSLYSSSLPPHLSGIKLGVISSEELPLYYRRSVELNSNSLESYENVMQSSLGFVNPGVVEFLLEKLGIDESNPPSLMRGLQSKNFSEDDFASALRKKQSASWALKCVKIGVDYFKVGRHVDAMNEYNKALEIDKQNVEALVARGALYATKGSLNKAIEDFELALENCPTHRNARKYLCQTLVERGGQLEEEEKFLNAESYYKKALALDETFKDAEDALQKLHKYMQVIPYFLLEI | failed |
| MQATMTDKNTRELLLDAATTLFAEQGIAATTMAEIAASVGVNPAMIHYYFKTRDSLLDTIIEERIGRIIDMIWEPVTGEEDDPLIMVRDLVNRIVNTCETMLWLPSLWIREIVNEGGALREKMLNNIPIDKMNKFSAKIAEGQKQGVINSGIDSRLLIGSIIGLTMLPLATAKLRDQIPTMKGLSSEDIVCHVTALLFTGLTNPSNSDDIKKQRT | not failed |
| LLPKYNILTEDQVQKIHENTMKILEEIGIEFEYEPALEVFRREGQKVEGKRVYLTREFVESKLKSAPAEFTLHARNPENNVVIGGDNIVFMPGYGAPFIYELDGSRRKTTLQDYENFAKLAGASKNMHLSGGTMAEPQDIPDGVRHLQMLYSSIKNSDKCFMGSAEGKERAEDSVEIAAILFGGKDVIKEKPVLVSLINSLTPLKYDERMLGALMAYAEAGQAVIIASLVMAGSTGPASLAGTLSLQNAEVLAGISLAQSINPGTPVIYGSTSALSDMRSGSLSIGSPECALFISASAQLARFYGVPSRSGGGLNDSKTVDAQAGYESMMTLMAANLTGVNFVLHTAGILQYFMAMSYEKFIMDDEIAGMLLHYMKGYTFDEDGMAFDVIEKVGPGGHFLTQKHTRKNHKREFYTPTLSDRSAYDTWAKEKLETKQRAHARWQQILANYVPPALDPEIDAKLQAFIAQRGKEVGEE | not failed |
| MSYEDWAGGIRCSECGREYTGIECPICRQADPTEREVVTEHGNGRGDQQPPENGTVSADSGVYDIDKIEHERHTDAEKVNPEVVDPSDYVTRAVSGVVFNKRHAWKAENRADEDNPPSLFVVTTADSEFNWIEIPLWDDAEGAMEDISIGDPIQAEGKLSKDNGVHNIHVHSQDSIDILTEPPEVKFDSMAIDQITSTTPKVDLEGTVERVGEIKDIQLDDEKVKLREIHVSDLNNDQIQVALWRTNAYEKVAPGDEIIIAGGLAKPHNEKVVVRVGWSGHIGYRSSLEHHHHHH | failed |
| MNPTAGKTSATGEQMASTSADTYSPSRDDFAAMLDESFAGGNLQESSVVKGKVVAIEKDMAVIDVGLKTEGRVALREFSGPGRDSEIKVGDEVEVFLDRIENALGEAVLSRDKARREESWGKLEKAFQNNEKVNGVIFNQVKGGFTVDLDGAVAFLPRSQVDIRPIRDVAPLMNNSQPFQILKMDRRRGNIVVSRRTVLEETRAEQRQELVQNLEEGQVIDGVVKNITDYGAFVDLGGIDGLLHVTDIAWRRVNHPTEVLSIGQTVKVKIIKINHETHRISLGMKQLLDDPWQGIEAKYPLGARFTGRVTNITDYGAFVELEPGIEGLIHVSEMSWTKKNMHPGKIVSTSQEVEVQVLEVDSVKRRISLGLKQTMRNPWEVFVEGHPTGSVVEGEVKNKTEFGLFLGLEGDVDGMVHLSDLDWKLPGEQVIDNYKKGDMVKAVVLDVDVEKERISLGIKQLEGDPFAEPGDVKKGAVVTCEVLEVKESGIEVKIAGTDFTTFIKRSELARDRNDQRAERFAVGEKVDARVIQFDKKARKVQVSIKALEVAEEKEAIAQYGSSDSGATLGDILGTALKNRDSK | failed |
| MTQLPPAIFLMGPTAAGKTDLAIELTKVLPCELISVDSALVYRGMDIGTAKPSRELLAQFPHRLIDILDPAESYSAADFRTDALAAMADITARGKIPLLVGGTMLYYKALLEGLADMPAADPQVRAELEEEAARLGWQALHDQLAAVDPESAARIHPNDPQRLTRALEVYRVSGLTMTAHRQRQLAQSTEAGASGRSQLPYTVANLAIAPANRQVLHQRIAQRFTQMLEQGFIDEVVALRSRSDLHAGLPSIRAVGYRQVWDHLDGKLTSAEMQERGIIATRQLAKRQFTWLRSWADLQWLDSLDCDNLPRALKYLGTISILSLEHHHHHH | failed |
| MTNLLVIGATGNIGQPLIRDLQDDPDVHLFAGVHNSEHAKQALNGLKVQVRRFDFLDPATFEQALADIDKVFFVRPPQLAKPKEDMYPFLDALVARHVKQVVFVSLLGVAHNPMTPHHQIEKRIVELGLPYTFIRPSFFMQNLNTTHQADIVGHRDLFVPAGHARTSFIDTRDIGATAAVILRDPAYIGQKLDITGAQALTYADAAQIMTMELGVPITYSKPSLWRFRKVMLQRGLPKNYVNVMVMLYLITQLGNAKTVTTTLPNVLGRPAISFEQYVHDYRAEFLPKPLSLEHHHHHH | failed |
| MTAAQFAALSPLVVLAIAAVAAMMLVPLARLQIVQASAAAGLAIAAALVLLRIGAPAAPMGALFTDDGPARFGIVFACLVSLGALVFLRTGHPAKEAPSLLVLVAIGAATLAGAGHAATLFLGIEILSLSLIALFAFRLTRQGLEAAYKFLVMSGLASSALLLGIALIFAETGALDFAGWGGRGALTAFGTALLLAGLAFKFSLVPFHMWTPDAFEAAPASAATLAGVVSKSAVAIVILRLALTAHLPEPVWSQGLAALGGASVLIGNLLALRQPQLPRMLGYSTIAHSGYIALIIASGTPHAGEAVLFYLAIYAPAMLGALCVSAALGRAPTLPDLHGLMKRRPLEAIALSLSLLSLAGLPAAGGFIAKLFLLRVLIDGSLWVLVGIVVAGSSLGFFYYAKFFTAPFVGHTHDESEPLPQLDRGLLIVCIALIVIFGVAPAGLMNVVAATMAP | failed |
| MARKKAMKVLRKQKKRENMQRFTQKQNIGRACLTAKEFRLLQRMSHSSKALRNVGLYTMKQSYLNHNRMATVKEVDTAMQNDMNYSGIQSNSVQAIRRSLFTEVKSFFKALEQWKKNPEKFTGRPKFPNYSRSTDKRIIEIYQVPKVDENGYWIIPMNVAFRKKFGSIQIRMPKNLRNKKISYIEIVPKQKGRFFEVHYTYEMHVSQMKKPSTTTSNALSCDLGVDRLVSCVTHTGDAFLIDGKKLKSINQYFNKMICNLQQKNMDNGISKRIVTNKMAALWHKRERQINGYIAQTVGLLFKKVKEFDIDTIVIGYNAGWKQNSHMGKKNNQKFVQIPFQKLMAAIENKCIKEGIRFFKQEESYTSKASFLDKDPVPVWSKNDRTQYRFSGKRITRGLYQSKAGTCIHADINGAMNILKKSGVVELDDNLKVKTPILLEVQKRKAIASRIA | failed |
| MTDLELQQLTQRIAQESFGKSFPYKVVFNQRLKTTGGRYHLNDHHIDINPLMLEEFDEATLIGVIKHELVHYFVHMLNEKPDHRNPHFQQLLRAVGGLRYAPTTSKRRRTPPKLLYQCQGCGLQYPRQRRINTRKYVCSKCRGRLKLL | failed |
| MAHHHHHHMAITLPKLKYALNALSPHISEETLSFHYNKHHAGYVNKLNGLIKDTPLANKSLTDILKESTGAIFNNAAQIWNHSFYWDSMGPNCGGEPHGEIKEKIQEDFGSFNNFKDQFSNVLCGHFGSGWGWLALNKNNKLVILQTHDAGNPIKENTGIPILTCDVWEHAYYIDYRNDRLSYVKAWWNLVNWNFANENLKNALNK | not failed |
| MVHHGQMHAQPGVGLRPDTPVASGQLPSTSIRSRRSGISKAQRETWERLWPELGLLALPQSPRGTPVDTRAWFGRDAPVVLEIGSGSGTSTLAMAKAEPHVDVIAVDVYRRGLAQLLCAIDKVGSDGINIRLILGNAVDVLQHLIAPDSLCGVRVFFPDPWPKARHHKRRLLQPATMALIADRLVPSGVLHAATDHPGYAEHIAAAGDAEPRLVRVDPDTELLPISVVRPATKYERKAQLGGGAVIELLWKKHGCSERDLKIR | failed |
| MEKYILSIDQGTTSSRAILFNQKGEIAGVAQREFKQYFPQSGWVEHDANEIWTSVLAVMTEVINENDVRADQIAGIGITNQRETTVVWDKHTGRPIYHAIVWQSRQTQSICSELKQQGYEQTFRDKTGLLLDPYFAGTKVKWILDNVEGAREKAENGDLLFGTIDTWLVWKLSGKAAHITDYSNASRTLMFNIHDLEWDDELLELLTVPKNMLPEVKASSEVYGKTIDYHFYGQEVPIAGVAGDQQAALFGQACFERGDVKNTYGTGGFMLMNTGDKAVKSESGLLTTIAYGIDGKVNYALEGSIFVSGSAIQWLRDGLRMINSAPQSESYATRVDSTEGVYVVPAFVGLGTPYWDSEARGAIFGLTRGTEKEHFIRATLESLCYQTRDVMEAMSKDSGIDVQSLRVDGGAVKNNFIMQFQADIVNTSVERPEIQETTALGAAFLAGLAVGFWESKDDIAKNWKLEEKFDPKMDEGEREKLYRGWKKAVEATQVFKTE | failed |
| MDRRLKKCSTSTDVESVHDVSKVTDPLQKAKRELDNVEIKEKQKKQKNQNETSEKETKKFSTVYEKFNDTIKELDRVSGTCPIRPAIPFTPPKEKVEPIYHNECNFDDKAHLGVSDSALFVQGFDTSHPRHEIKTALWNHFSSCGKVYLIYVPIACSTGASVGYAFIDMKNETKGLTLNGSHLGGRKIDVMFAIDREEFYFSSNLKHCQRCRNYRPWLVLKAMSDACFEYHQRIKPRIVGTPHSKIGRFTAIIGRRSYS | failed |
